Laboratory results taken from publication PMC7508256.

Legend:
Experiment in all cases: MST
DF2 (YTHDF2) = molecular target: T1, DF2 (YTHDF2) (UniProt Q9Y5A9 1-579)
T1 sequence: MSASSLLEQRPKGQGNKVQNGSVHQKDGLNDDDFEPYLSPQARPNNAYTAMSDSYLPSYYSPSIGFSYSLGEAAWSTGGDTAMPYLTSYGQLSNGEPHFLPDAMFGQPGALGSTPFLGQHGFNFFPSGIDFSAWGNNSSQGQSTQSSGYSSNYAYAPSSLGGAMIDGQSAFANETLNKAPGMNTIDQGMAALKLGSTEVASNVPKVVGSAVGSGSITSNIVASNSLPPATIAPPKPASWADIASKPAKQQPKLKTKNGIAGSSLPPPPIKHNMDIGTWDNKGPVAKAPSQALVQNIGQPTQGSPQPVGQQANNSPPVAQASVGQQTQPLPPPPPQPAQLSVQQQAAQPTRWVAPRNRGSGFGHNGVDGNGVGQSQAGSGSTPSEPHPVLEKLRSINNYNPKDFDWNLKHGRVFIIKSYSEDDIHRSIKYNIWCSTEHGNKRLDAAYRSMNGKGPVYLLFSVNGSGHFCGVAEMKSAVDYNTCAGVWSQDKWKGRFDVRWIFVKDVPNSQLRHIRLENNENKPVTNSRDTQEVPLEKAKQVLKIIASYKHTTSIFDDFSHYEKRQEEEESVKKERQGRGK

DF3 (YTHDF3) = molecular target: T2, DF3 (YTHDF3) (UniProt Q7Z739 1-585)
T2 sequence: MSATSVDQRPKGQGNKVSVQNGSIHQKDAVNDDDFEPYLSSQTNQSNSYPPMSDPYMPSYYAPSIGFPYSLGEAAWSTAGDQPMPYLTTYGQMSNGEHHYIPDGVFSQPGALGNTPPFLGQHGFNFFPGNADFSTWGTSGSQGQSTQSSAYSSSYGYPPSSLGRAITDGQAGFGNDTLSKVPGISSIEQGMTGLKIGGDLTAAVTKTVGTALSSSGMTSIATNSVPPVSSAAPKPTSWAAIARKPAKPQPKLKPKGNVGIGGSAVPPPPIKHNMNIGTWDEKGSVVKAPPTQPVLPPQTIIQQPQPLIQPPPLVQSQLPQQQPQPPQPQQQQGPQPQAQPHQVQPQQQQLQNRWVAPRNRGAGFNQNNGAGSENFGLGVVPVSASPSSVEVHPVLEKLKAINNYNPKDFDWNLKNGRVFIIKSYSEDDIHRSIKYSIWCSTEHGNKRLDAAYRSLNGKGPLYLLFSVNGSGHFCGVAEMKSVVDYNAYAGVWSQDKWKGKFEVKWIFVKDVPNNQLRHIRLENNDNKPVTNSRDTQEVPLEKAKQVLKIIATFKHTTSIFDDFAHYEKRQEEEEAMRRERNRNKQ

DF1 (YTHDF1) = molecular target: T3, DF1 (YTHDF1) (UniProt Q9BYJ9 1-559)
T3 sequence: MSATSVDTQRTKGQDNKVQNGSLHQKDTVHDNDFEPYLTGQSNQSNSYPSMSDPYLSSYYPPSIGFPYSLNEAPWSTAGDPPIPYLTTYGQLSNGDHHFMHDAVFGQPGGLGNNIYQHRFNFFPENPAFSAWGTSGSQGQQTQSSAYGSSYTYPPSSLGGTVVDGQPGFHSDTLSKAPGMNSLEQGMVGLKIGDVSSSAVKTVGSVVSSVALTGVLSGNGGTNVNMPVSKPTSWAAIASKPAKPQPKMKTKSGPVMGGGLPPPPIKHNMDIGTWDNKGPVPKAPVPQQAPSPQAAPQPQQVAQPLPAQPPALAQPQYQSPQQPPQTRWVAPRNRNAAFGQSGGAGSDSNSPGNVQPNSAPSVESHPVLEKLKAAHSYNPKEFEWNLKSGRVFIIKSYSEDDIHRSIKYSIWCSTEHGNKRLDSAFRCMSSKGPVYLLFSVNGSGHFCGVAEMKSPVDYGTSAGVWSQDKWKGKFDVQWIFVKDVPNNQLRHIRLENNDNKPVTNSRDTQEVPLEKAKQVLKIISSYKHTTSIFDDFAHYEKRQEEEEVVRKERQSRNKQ

Measured: binding result

UCCGGACUGU (ssRNA, N6-methyladenosine at position 6) [m6A-modified RNA]
binds: all assays above
